We go through 38 sequences from the supplement of paper PMC7877785.

± gives the uncertainty stated by the source.

The data set in a line: self-splicing fitness, log relative to wild type (ln ratio); higher = more splicing; Tetrahymena group I intron in knt gene, E. coli kanamycin selection, DiMSum; sequences stand for … in CUCUCU…GGAGGGAAAAGUUAUCAGGCAUGCACCUGGUAGCUAGUCUUUAAACCAAUAGAUUGCAUCGGUUUAAAAGGCAAGACCGUCAAAUUGCGGGAAAGGGGUCAACAGCCGUUCAGUACCAAGUCUCAGGGGAAACUUUGAGAUGGCCUUGCAAAGGGUAUGGUAAUAAGCUGACGGACAUGGUCCUAACCACGCAGCCAAGUCCUAAGUCAACAGAUCUUCUGUUGAUAUGGAUGCAGUUCACAGACUAAAUGUCGGUCGGGGAAGAUGUAUUCUUCUCAUAAGAUAUAGUCGGACCUCUCCUUAAUGGGAGCUAGCGGAUGAAGUGAUGCAACACUGGAGCCGCUGGGAACUAAUUUGUAUGCGAAAGUAUAUUGAUUAGUUUUGGAGUACUCGUGGUCG
The procedure, abridged: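 Six replicate transformations of E. coli BL21(DE3) with a pET-22b(+) library were grown overnight at 37°C or 30°C. The library randomised all eight P1ex-region intron nucleotides, the intron lying in the knt kanamycin-resistance gene, and plates were LB agar with or without 25 μg/mL kanamycin plus 100 μg/mL carbenicillin, 50 μM IPTG and 0.2% rhamnose. Pooled colonies were amplicon-sequenced on an Illumina HiSeq 2500, and fitness is the DiMSum error-weighted combination of wild-type-normalised replicate fold changes, kanamycin versus none.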

In the case of GAAGAGCAAUAUUACGGCUC, the “self-splicing fitness (ln)” value by setting is: (30 °C) -1.85 ± 0.24; (37 °C) -2.06 ± 0.3.
Turning to AUUUAGCAAUAUUACGUCGU, the “self-splicing fitness (ln)” value is -1.7 ± 0.11 (30 °C) and -1.33 ± 0.1 (37 °C).
As to GUCGAGCAAUAUUACGCUAG, the “self-splicing fitness (ln)” value is, setting by setting: (30 °C) -3.53 ± 0.21; (37 °C) -1.93 ± 0.15.
In the case of AGGUAGCAAUAUUACGAGAA, the “self-splicing fitness (ln)” value was -2.95 ± 0.05 (30 °C) and -2.09 ± 0.047 (37 °C).
Taken in the same sequence, the figures for CGCGAGCAAUAUUACGUGUA were -3.72 ± 0.18 and -1.48 ± 0.11.
For the sequence CCUAAGCAAUAUUACGGCUA, the “self-splicing fitness (ln)” value is -3.69 ± 0.47 (30 °C) and -3.14 ± 0.25 (37 °C).
As to ACUCAGCAAUAUUACGGCGG, the “self-splicing fitness (ln)” value is -0.825 ± 0.078 (30 °C) and -0.0415 ± 0.095 (37 °C).
For CGACAGCAAUAUUACGGCAU, the “self-splicing fitness (ln)” value (30 °C) is -3.08 ± 0.21 and the “self-splicing fitness (ln)” value (37 °C) was -2.16 ± 0.25.
In the case of CAUAAGCAAUAUUACGCAGU, the “self-splicing fitness (ln)” value is -3.05 ± 0.23 (30 °C) and -0.865 ± 0.13 (37 °C).
On the same counts, the results for GGGAAGCAAUAUUACGUAGA are -1.36 ± 0.15 and -0.824 ± 0.19.
Regarding GCUUAGCAAUAUUACGGUCA, the “self-splicing fitness (ln)” value is, setting by setting: (30 °C) -1.04 ± 0.13; (37 °C) -0.448 ± 0.14.
Consider AUCUAGCAAUAUUACGCAAU, for which the “self-splicing fitness (ln)” value by setting is: (30 °C) -2.02 ± 0.089; (37 °C) -1.37 ± 0.09.
On the same counts, the results for CAAAAGCAAUAUUACGGACU are -2.38 ± 0.12 and -1.46 ± 0.12.
Turning to CAGUAGCAAUAUUACGGACU, the “self-splicing fitness (ln)” value is -2.38 ± 0.16 (30 °C) and -0.698 ± 0.12 (37 °C).
Take GCGCAGCAAUAUUACGUCGG: the “self-splicing fitness (ln)” value was -1.4 ± 0.097 (30 °C) and -0.816 ± 0.13 (37 °C).
UUGAAGCAAUAUUACGCUUA: the “self-splicing fitness (ln)” value (30 °C) is -1.17 ± 0.083 and the “self-splicing fitness (ln)” value (37 °C) was -0.467 ± 0.093.
Take GUAGAGCAAUAUUACGGUGA: the “self-splicing fitness (ln)” value reads like this: (30 °C) -2.14 ± 0.13; (37 °C) -1.09 ± 0.2.
For the sequence GUCAAGCAAUAUUACGGGAA, the “self-splicing fitness (ln)” value (30 °C) was -3.1 ± 0.19 and the “self-splicing fitness (ln)” value (37 °C) was -0.398 ± 0.12.
For the sequence UUCCAGCAAUAUUACGACUU, the “self-splicing fitness (ln)” value runs as follows: (30 °C) -1.5 ± 0.18; (37 °C) -0.653 ± 0.2.
On to AGCUAGCAAUAUUACGUACC, for which the “self-splicing fitness (ln)” value (30 °C) was -0.329 ± 0.19 and the “self-splicing fitness (ln)” value (37 °C) was -0.483 ± 0.25.
As to GGCAAGCAAUAUUACGCUGA, the “self-splicing fitness (ln)” value (30 °C) was -1.13 ± 0.12 and the “self-splicing fitness (ln)” value (37 °C) is -1.27 ± 0.14.
UUUUAGCAAUAUUACGAUGA: the “self-splicing fitness (ln)” value was 0.0426 ± 0.16 (30 °C) and -0.186 ± 0.2 (37 °C).
In the case of UGUGAGCAAUAUUACGGCGU, the “self-splicing fitness (ln)” value is -3.33 ± 0.3 (30 °C) and -1.92 ± 0.32 (37 °C).
CAAAAGCAAUAUUACGGAAA: the “self-splicing fitness (ln)” value (30 °C) is -2.67 ± 0.5 and the “self-splicing fitness (ln)” value (37 °C) was -2.08 ± 0.3.
Regarding AUACAGCAAUAUUACGUGUC, the “self-splicing fitness (ln)” value runs as follows: (30 °C) -4.39 ± 0.14; (37 °C) -2.67 ± 0.13.
Turning to CUGUAGCAAUAUUACGAAGA, the “self-splicing fitness (ln)” value (37 °C) was -2.29 ± 0.29.
Turning to GUUCAGCAAUAUUACGGUGC, the “self-splicing fitness (ln)” value by setting is: (30 °C) -1.34 ± 0.14; (37 °C) -0.357 ± 0.12.
On to ACCCAGCAAUAUUACGCAAG, for which the “self-splicing fitness (ln)” value is, setting by setting: (30 °C) -2.81 ± 0.11; (37 °C) -1.14 ± 0.11.
As to AUGCAGCAAUAUUACGCAAC, the “self-splicing fitness (ln)” value (30 °C) was -2.42 ± 0.18 and the “self-splicing fitness (ln)” value (37 °C) was -2.58 ± 0.2.
Consider CUACAGCAAUAUUACGUAUG, for which the “self-splicing fitness (ln)” value reads like this: (30 °C) -2.21 ± 0.09; (37 °C) -1.35 ± 0.091.
Taken in the same sequence, the figures for CGGGAGCAAUAUUACGAUCC were -3.35 ± 0.21 and -1.68 ± 0.22.
AUCCAGCAAUAUUACGAGUC: the “self-splicing fitness (ln)” value (30 °C) is -2.87 ± 0.17 and the “self-splicing fitness (ln)” value (37 °C) is -2.01 ± 0.21.
As for UGCAAGCAAUAUUACGACCC, the “self-splicing fitness (ln)” value runs as follows: (30 °C) -2.05 ± 0.49; (37 °C) 0.223 ± 0.43.
Regarding AACCAGCAAUAUUACGAACA, the “self-splicing fitness (ln)” value runs as follows: (30 °C) -0.809 ± 0.07; (37 °C) 0.214 ± 0.07.
As for UUCGAGCAAUAUUACGGCGU, the “self-splicing fitness (ln)” value is -1.44 ± 0.16 (30 °C) and -0.438 ± 0.19 (37 °C).
Turning to UGAUAGCAAUAUUACGCAGG, the “self-splicing fitness (ln)” value was -3.38 ± 0.24 (30 °C) and -2.27 ± 0.36 (37 °C).
For the sequence AAGUAGCAAUAUUACGUCCG, the “self-splicing fitness (ln)” value (30 °C) was -1.53 ± 0.14 and the “self-splicing fitness (ln)” value (37 °C) was -1.93 ± 0.14.
For the sequence UGGCAGCAAUAUUACGACUC, the “self-splicing fitness (ln)” value runs as follows: (30 °C) -1 ± 0.1; (37 °C) -1.1 ± 0.12.
